Data from PMC4379015, “Chemical and Thermal Unfolding of a Global Staphylococcal Virulence Regulator with a Flexible C-Terminal End” (PLoS ONE, 2015).

Experiments:
[1] = tested on: rSarA (Staphylococcus aureus strain Newman); assay: EMSA; conditions: Gel shift buffer not stated (performed as reported earlier); rSarA kept in buffer A: 20 mM phosphate pH 8.0, 100 mM NaCl, 5% glycerol; binding temperature not …
[2] = biological target: the molecule itself; assay: SEC; analytical gel filtration of rSarA (20 uM) without denaturant; apparent mass from the elution volumes of monomeric marker proteins

hla DNA was tested, and the K half [1] was 286 nM.

B1: rSarA (a C-terminally histidine-tagged SarA) (natural protein)
chain: MAITKINDCFELLSMVTYADKLKSLIKKEFSISFEEFAVLTYISENKEKEYYLKDIINHLNYKQPQVVKAVKILSQEDYFDKKRNEHDERTVLILVNAQQRKKIESLLSRVNKRITEANNEIEL
notes: the cloning attached eight additional residues at the C-terminal end of SarA; Leu 125 and Glu 126 of rSarA lie in the tag; also called recombinant SarA; not shown: His6 (eight additional residues including six histidine residues), C-terminal, kept
In the case of B1, the “stoichiometry N” value [2] is reported as 2.
